Patent publication US20240368267A1 (KODIAK SCIENCES, published 2024)

Assays:
[1] = target: VEGF (UniProt P15692-4 27-191, limits assumed); experiment: cell-based or functional assay
[2] = target: T1, recombinant human IL-6 (human, UniProt P05231 30-212); experiment: Biacore at 37 C, antibody captured on Protein A, IL-6 as analyte
T1 construct: bought protein; also called interleukin-6
T1 sequence (P05231 30-212 limits assumed): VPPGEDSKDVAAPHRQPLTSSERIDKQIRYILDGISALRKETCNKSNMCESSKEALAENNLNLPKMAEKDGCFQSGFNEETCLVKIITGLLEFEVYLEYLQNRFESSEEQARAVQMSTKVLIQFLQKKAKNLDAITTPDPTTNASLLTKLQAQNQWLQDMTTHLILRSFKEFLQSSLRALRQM

Chain of VEGF (P15692 other isoform, or with tags, fused parts or gaps limits assumed): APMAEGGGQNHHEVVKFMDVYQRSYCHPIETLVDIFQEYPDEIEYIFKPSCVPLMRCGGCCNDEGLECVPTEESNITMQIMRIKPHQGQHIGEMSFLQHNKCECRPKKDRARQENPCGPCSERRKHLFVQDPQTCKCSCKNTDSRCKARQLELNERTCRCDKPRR

| Binder | cell-based VEGF stimulated VEGFR reporter assay (KDR/VEGF HEK293 cells, luminescence), IC50 [1] | fold increase in affinity relative to the wild-type heavy chain [2] |
| --- | --- | --- |
| VEGFR-AntiIL6 (heavy chain of sequences 1A-2A-3H, light chain of sequence 4A) (bispecific antibody) fusion: SDTGRPFVEMYSEIPEIIHMTEGRELVIPCRVTSPNITVTLKKFPLDTLIPDGKRIIWDSRKGFIISNATYKEIGLLTCEATVNGHLYKTNYLTHRQTNTIIDVVLSPSHGIELSVGEKLVLNCTARTELNVGIDFNWEYPSSKHQHKKLVNRDLKTQSGSEMKKFLSTLTIDGVTRSDQGLYTCAASSGLMTKKNSTFVRVHEKGGGGSGGGGSEVQLVESGGGLVQPGGSLRLSCAASGFTFSPFAISWVRQAPGKGLEWVAKISPGGSWTYYSDTVTDRFTFSLDTSKSTAYLQMNSLRAEDTAVYYCARQLWGYYALDVWGQGTLVTVSSASTKGPSVFPLAPSSKSTSGGTAALGCLVKDYFPEPVTVSWNSGALTSGVHTFPAVLQSSGLYSLSSVVTVPSSSLGTQTYICNVNHKPSNTKVDKKVEPKSCDKTHTCPPCPAPEAAGAPSVFLFPPKPKDTLMISRTPEVTCVVVDVSHEDPEVKFNWYVDGVEVHNAKTKPREEQYNSTYRVVSVLTVLHQDWLNGKEYKCKVSNKALPAPIEKTISKAKGQPREPQVYTLPPSREEMTKNQVSLTCLVKGFYPSDIAVEWESNGQPENNYKTTPPVLDSDGSFFLYSKLTVDKSRWQQGNVFSCSVMHEALHNHYTQKSLSCSPGK light: DIQLTQSPSSLSASVGDRVTITCSASISVSYLYWYQQKPGKAPKLLIYDDSSLASGVPSRFSGSGSGTDFTLTISSLQPEDFATYYCQQWSGYPYTFGQGTKVEIKRTVAAPSVFIFPPSDEQLKSGTASVVCLLNNFYPREAKVQWKVDNALQSGNSQESVTEQDSKDSTYSLSSTLTLSKADYEKHKVYACEVTHQGLSSPVTKSFNRGEC | 180 pM |  |
| anti-IL-6 antibody, heavy chain S35H, G66D, light chain M32L/M50D/N52S/M88Q (antibody, human IgG1, V domains shown, engineered human IgG1 as m23; also called S35H G66D double mutant with mutagenized light chain) VH: EVQLVESGGGLVQPGGSLRLSCAASGFTFSPFAMHWVRQAPGKGLEWVAKISPGGSWTYYSDTVTDRFTFSLDTSKSTAYLQMNSLRAEDTAVYYCARQLWGYYALDIWGQGTLVTVSS VL: DIQLTQSPSSLSASVGDRVTITCSASISVSYLYWYQQKPGKAPKLLIYDDSSLASGVPSRFSGSGSGTDFTLTISSLQPEDFATYYCQQWSGYPYTFGQGTKVEIK |  | ~1.3 fold |
| anti-IL-6 antibody, heavy chain S35H, G66D, light chain wild-type (antibody, human IgG1, V domains shown, engineered human IgG1 as m23; also called S35H G66D double mutant) VH: EVQLVESGGGLVQPGGSLRLSCAASGFTFSPFAMHWVRQAPGKGLEWVAKISPGGSWTYYSDTVTDRFTFSLDTSKSTAYLQMNSLRAEDTAVYYCARQLWGYYALDIWGQGTLVTVSS VL: DIQLTQSPSSLSASVGDRVTITCSASISVSYMYWYQQKPGKAPKLLIYDMSNLASGVPSRFSGSGSGTDFTLTISSLQPEDFATYYCMQWSGYPYTFGQGTKVEIK |  | ~2 fold |
